± gives the uncertainty stated by the source.

The data set in a line: amyloid nucleation score (Sup35N fusion, yeast selection) (log enrichment); library NNK2; higher = more nucleation; inactive = no reads after selection. Summed up:
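Peptides of 20 random codons, each fused to Sup35N, were expressed in psi-negative yeast. Cells were induced with 100 μM copper sulfate for 24 hours and grown 7 days at 30°C on medium lacking adenine and uracil, and plasmid inserts before and after selection were Illumina-sequenced. Nucleation scores are DiMSum log enrichments of output over input reads, centred on the mode score of non-aggregating sequences, and sequences under 100 input reads were excluded.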
YMCCFYAVGFPFDYKLGFVR: the amyloid nucleation score came to 4.35 ± 0.068.
RQLAQQYAHAFGYIFHSLYL came in with an amyloid nucleation score of 1.19 ± 0.4.
With FRIGFVFCVSYCRECRN, the amyloid nucleation score was 0.065 ± 1.1.
Then MPEIREREMYGLVESLEYKK, with -0.147 ± 0.41; and FLGEAHFI, with 0.078 ± 0.4.
KCSTVYASGFWLPWTVVPGR: the amyloid nucleation score came to 0.418 ± 0.26.
Turning to CMNSSDLECPMGDCVCVVLN, the amyloid nucleation score is 2.82 ± 0.1.
As to TNPASAGTYSRSYEFCSLRL, the amyloid nucleation score is 1.59 ± 0.18.
EEYCSFKLVHMGRGPAGHSI came in with an amyloid nucleation score of 2.58 ± 0.11.
Turning to WVYKWIWRLFDGFHHQLMLS, the amyloid nucleation score entry was “inactive”.
RVMMSRISYSLSCVSADKVR: the amyloid nucleation score was 0.288 ± 0.24.
As for TFMWVDSMP, the amyloid nucleation score is -0.525 ± 0.48.
In the case of LLATSWSVLEDLYAGNDLYD, the amyloid nucleation score result was “inactive”.
NNVFELCERSKLPIKKFHDV: the amyloid nucleation score is -0.615 ± 1.
For the substance LFYSPSVGCWFLFSYGPHIG, the amyloid nucleation score entry is “inactive”.
Then SNNWSLDMRRPVFKPPYGEG, with -0.744 ± 0.53.
With ISSICFRNRDNFFLRAFGIG, the amyloid nucleation score result was “inactive”.
Then LKVRKLSLARCVGIHTLQT, with 4.4 ± 0.06; and IYIMVTVF, with 0.086 ± 0.33; and SSQTGTCFARLQSAVFQVVW, with 1.69 ± 0.36.
For the substance ISYTVDQRRFTSLVRCLYDH, the amyloid nucleation score came to 0.322 ± 0.57.
Regarding CCNIGHNVMNY, the amyloid nucleation score was determined as 2.9 ± 0.11.
As for YFGSIIIYRIPAVPQILSVN, the amyloid nucleation score entry was “inactive”.
The substance SCYFLFGHDG had an amyloid nucleation score of -0.517 ± 0.49.
Then IYWMIIFWGFE, with -0.089 ± 1.1; and HVVVDCISNCEFTCMWCSAY, with 5.57 ± 0.06; and YMKNSGHDMASLRNIYLIFR, with 5.15 ± 0.075.
Take PAFMSV: the amyloid nucleation score is -1.05 ± 0.36.
Then QIHGVTFFSQRTGTCASEP, with -0.875 ± 0.44; and FINSHFHYEECPIMGKQSVL, with 1.63 ± 0.53; and WVIVRLIITTDVQCNYVFLP, with 0.248 ± 0.38.
As for SWKDYHN, the amyloid nucleation score result is “inactive”.
GVSGIEVVFYMLSKWGKHER: the amyloid nucleation score was determined as 4.13 ± 0.054.
Consider VLAVSLIYALTP, for which the amyloid nucleation score entry was “inactive”.
The substance VTTMRNSFKFYAIVMGLCSF gave an amyloid nucleation score of 0.272 ± 0.65.
With HLGRG the figure was 0.126 ± 0.45; with INFTYMGVMIFLSLLRQTWG, -0.311 ± 0.56.
CRRRSPTNGGVNVRN showed an amyloid nucleation score of 0.41 ± 0.74.
As for PNDHNQLQGPMLSLPPVKQV, the amyloid nucleation score was -0.359 ± 0.41.
SKSEIHCYLMMGRHLFG returned an amyloid nucleation score of 4.5 ± 0.11.
In the case of CFKFRYRLGGW, the amyloid nucleation score was 4.93 ± 0.05.
Regarding MWIHYKVFRCWTVRAEKVTG, the amyloid nucleation score was found to be 4.29 ± 0.083.
With AGYIVIALSRCCTDSRPNRV the entry was “inactive”; with LWHESC, -0.119 ± 0.33; with GKRFNFVTCPPVLRR, -0.088 ± 0.34.
For the substance RFCWICCHVQFFYELHITHA, the amyloid nucleation score result was “inactive”.
Take VLTMHPVRMFLDFFDDMMCY: the amyloid nucleation score entry was “inactive”.
In turn, ISTTFV showed an amyloid nucleation score of 0.192 ± 0.79.
The substance NFFVFYIR registered an amyloid nucleation score of 7.06 ± 0.072.
The substance HAILPRCTFHSPMVYALYFT showed an amyloid nucleation score of 0.58 ± 0.65.
QLYLTVTNGFVRCTTASDVL gave an amyloid nucleation score of 1.14 ± 0.47.
In the case of KNDLPRKKVL, the amyloid nucleation score was determined as 0.128 ± 0.4.
As to RMVLSGNLLQRNRNYPNQRM, the amyloid nucleation score was 2.03 ± 0.079.
As for TLCMSRGNSYCCMQSFSEKD, the amyloid nucleation score turned out to be 5.05 ± 0.063.
Regarding SISRISPTQGIIGQTRFFYV, the amyloid nucleation score is -1.14 ± 0.76.
Then NLTFACVVYANWVILTHGAR, with 6.336 ± 0.061; and AASRWTWC, with 1.5 ± 0.16; and DRACPYLWVPLRLRGLDTII, with -1.32 ± 0.44.
The substance VLSYSVFTLRLATKIVP had an amyloid nucleation score of -0.337 ± 1.1.
Then FYVVFLNGVLLDYNDDLYGI, with “inactive”; and GNFMTECLQARICGPDGEKK, with 5.12 ± 0.095.
Turning to FYTDPALISHTVEIILVLLI, the amyloid nucleation score result is “inactive”.
IWMRVVC: the amyloid nucleation score was 0.337 ± 0.8.
With IVTTKWGNSHVSSVRIKARL the figure was 5.42 ± 0.084.
YYSVGNAGL displayed an amyloid nucleation score of -1.3 ± 0.39.
In turn, QRGFLRVPSLWCSFCLH yielded an amyloid nucleation score of -0.176 ± 1.1.
AMSFGCSAWYTSYRDMFCRG displayed an amyloid nucleation score of 3.17 ± 0.15.
Consider IKATCAGSNIFDNLALKDAS, for which the amyloid nucleation score result was “inactive”.
Turning to NIRSHKGIVLVG, the amyloid nucleation score entry is “inactive”.
As for MNEFCRTGCRTFRQRSSCCR, the amyloid nucleation score came out at 0.868 ± 0.15.
TVLILPPHTRSDINFMVHYT: the amyloid nucleation score amounted to 4.43 ± 0.063.
Then RLLNPRVSKVWICAHNARDL, with 1.1 ± 0.24; and GMVDLGVGSWCMEP, with 0.893 ± 0.15; and YHCPVSW, with -0.254 ± 0.32.
As to LKNYSGLMPVI, the amyloid nucleation score came out at 3.41 ± 0.068.
With LLLSRGFMGVSKRSMVYRRV, the amyloid nucleation score entry was “inactive”.
On to FSFRVMRHSKKGK, for which the amyloid nucleation score result was “inactive”.
The substance NWWLTHVHLVSFYVVSWGWV came in with an amyloid nucleation score of 3.35 ± 0.12.
LFVASVSLTAHNRGGDTWRR gave an amyloid nucleation score of 5.8 ± 0.084.
Take FRVMQNFHQSYGHYKWVFHF: the amyloid nucleation score came out at 5.57 ± 0.057.
For WSYLVLSPMRRNRVRMVHII, the amyloid nucleation score was -0.517 ± 0.63.
Then LSGAPRLILRVNLWDTFDVQ, with 4 ± 0.046.
Regarding SGGLSR, the amyloid nucleation score was -0.728 ± 0.79.
For KKAIFWWFWDHDSCL, the amyloid nucleation score entry is “inactive”.
In the case of SYNLNSNRVESIDFSSIIIV, the amyloid nucleation score is -0.459 ± 1.1.
With MRFNDTENWGVSDVISSNDF the entry was “inactive”; with IHLHYNVDNCTFELLK, -0.499 ± 0.26.
The substance MGDSTIEVTLPVG came in with an amyloid nucleation score of 0.987 ± 0.39.
The substance IFRSMFILTYPGSRYNDEYL displayed an amyloid nucleation score of 4.13 ± 0.061.
On to VRFWSLMCYACFSQSGSRVR, for which the amyloid nucleation score amounted to 3.91 ± 0.084.
Then FQMYTISLRRLVNNKSYARV, with 0.319 ± 0.8.
With QTMVCTTISAPKSGSAWERS the figure was 0.109 ± 0.37.
For PEFICYCANSACDWSTYCIG, the amyloid nucleation score came to 7.356 ± 0.036.
As for SIGPQRHLPYLLVFVYWTLS, the amyloid nucleation score turned out to be 0.309 ± 0.8.
The substance KWIYQIFPVMALECKGVLH had an amyloid nucleation score of 2.85 ± 0.15.
As for FVFHWLFVSSRACILHPVVW, the amyloid nucleation score was determined as 0.604 ± 0.3.
TMILCRKYNASWMIVARNDL displayed an amyloid nucleation score of -0.311 ± 1.1.
VTNYVEFCTGFRICGVSLPC had an amyloid nucleation score of 8.387 ± 0.036.
With WDGYGVYFQTQAKVR, the amyloid nucleation score came to 0.102 ± 0.63.
In the case of VWMDIRSYLVGGLLTAVPRD, the amyloid nucleation score worked out at 0.481 ± 0.2.
With HREKAGSPSCREI the figure was -0.347 ± 1.
NLVAMPDQVAGSTCRVCNNN: the amyloid nucleation score was 0.486 ± 0.51.
Substance LYSCWVSCLEGRLVCGPLTH came in with an amyloid nucleation score of -0.65 ± 0.39.
As to WVCSFHYAEYSLRVIAARFP, the amyloid nucleation score turned out to be 0.081 ± 0.8.
Take VTMYPFRRIVGRQQLMAWLY: the amyloid nucleation score was 0.973 ± 0.38.
The substance HKKCSRKKFPAPRPSRTNTS came in with an amyloid nucleation score of -0.605 ± 0.48.
For the substance YFWDQGLHPVSFRESTYDLV, the amyloid nucleation score was -0.243 ± 1.1.
Take FRCAE: the amyloid nucleation score worked out at 3.84 ± 0.091.
Substance CMQVYTVEYTGFCCATRARK displayed an amyloid nucleation score of 5.09 ± 0.066.
Then SDRMLCEGNYCWCVSENVLL, with 6.12 ± 0.061.
With NTYVRSRHMAMSYCRMQMCL the figure was 0.141 ± 0.27; with ITTSSSWCATILSPQFFKDV, -0.569 ± 0.44.
Turning to LGYFFGSTFSRAVLFVRLRR, the amyloid nucleation score was -0.097 ± 0.52.
Consider ETSMYVYLGI, for which the amyloid nucleation score was -0.384 ± 0.35.
CCYVHWILGAGDREGRLWRQ showed an amyloid nucleation score of 3.86 ± 0.13.
As for YKISDRVALISYPNFAIVWT, the amyloid nucleation score is -2.25 ± 0.78.
With FLSSGFCRTDFVRSIILYGP the figure was -1.43 ± 0.55; with FITQVHSYWDSISTVTSDIL, “inactive”; with TYYVYEVGVS, -0.203 ± 0.41.
Take FACRWFQSWSLRYLFPELTL: the amyloid nucleation score was -0.238 ± 0.5.
For CLDPLAMSN, the amyloid nucleation score entry was “inactive”.
Then DVVILMF, with 0.639 ± 0.5.
As to NGTCLYAYIMIRLISNEFSR, the amyloid nucleation score was -0.417 ± 0.42.
FYMPLLMYVVAVRPMSGNLV: the amyloid nucleation score is -0.22 ± 1.
MISVVRKPPLIISVIRSRWD registered an amyloid nucleation score of 0.687 ± 0.47.
TKFMIYRDYSLVKSHH: the amyloid nucleation score result was “inactive”.
As for FWSTTDILVGRTSHTGTVCV, the amyloid nucleation score is 0.118 ± 0.26.
Consider SLVNYPMKVIGVVRKFW, for which the amyloid nucleation score is 2.08 ± 0.13.
For the substance YSAPCGGDGESWDGFKMMEH, the amyloid nucleation score is 0.053 ± 1.1.
The substance LLSISCV registered an amyloid nucleation score of 0.512 ± 0.34.
With FKDWNKWY the entry was “inactive”; with TVFSIMLLSRM, -0.002 ± 1.
As to FLIFDRSKCCCVDTRGSGGT, the amyloid nucleation score result is “inactive”.
Substance KVEALDVTRGIVPGKSLAVR showed an amyloid nucleation score of 0.249 ± 0.55.
In the case of TMWRVIGSVYFVKFFSATLG, the amyloid nucleation score was -0.07 ± 0.43.
With QVIFI the entry was “inactive”.
In turn, SMFCVPFMINLVLYVMGEVW had an amyloid nucleation score of 0.288 ± 0.64.
For the substance VNIVVILFIVADIKWRRF, the amyloid nucleation score came to 3.15 ± 0.12.
